According to patent US20230173042A1, “METHODS OF TREATMENT WITH ASPARAGINASE” (JAZZ PHARMACEUTICALS IRELAND LTD., priority 2017, published 2023):

Assays:
[1] = PEGylated enzyme relative to unmodified enzyme; cited from earlier work
[2] = children who received the drug; cited from earlier work
MV-4-11 = assay: Oncolines cell proliferation assay (ATP luminescence); type: cell-based; conditions: MV-4-11, biphenotypic B myelomonocytic leukemia
Description: (§1) Cell preparation. All cell lines have been licensed from the American Type Culture Collection (ATCC) Manassas, Va. (US). Master and Working Cell banks (MCB and WCB) were prepared by subculturing in ATCC-recommended media and freezing according to ATCC recommended protocols (www.atcc.org).
(§2) Compound preparation. Test compounds were prepared as stock solutions in DMSO or aqueous buffers as appropriate and serially diluted to obtain a dilution series.
(§3) Cell proliferation assay. Cell proliferation was assessed using a commercially available luminescence assay using ATP as the endpoint.
(§4) Controls. t=0 signal. On a parallel plate, 45 μl cells were dispensed and incubated in a humidified atmosphere of 5% CO2 at 37° C. After 24 hours 5 μl DMSO-containing Hepes buffer and 25 μl ATPlite 1Step™ solution were mixed, and luminescence measured after 10 minute incubation (=luminescencet=0).
(§5) Reference compound. The IC50 of the reference compound doxorubicin is measured on a separate plate. The IC50 is trended. If the IC50 is out of specification (0.32-3.16 times deviating from historic average) the assay is invalidated.
(§6) Cell growth control. The cellular doubling times of all cell lines are calculated from the t=0 hours and t=end growth signals of the untreated cells. If the doubling time is out of specification (0.5-2.0 times deviating from historic average) the assay is invalidated.
(§7) Maximum signals. For each cell line, the maximum luminescence was recorded after incubation until t=end without compound in the presence of 0.4% DMSO (=luminescenceuntreated,t=end).
(§8) IC50 were calculated by non-linear regression using IDBS XLfit. The percentage growth after incubation until t=end (%-growth) was calculated as follows: 100%×(luminescencet=end/luminescenceuntreated,t=end). This was fitted to the ^10log compound concentration (conc) by a 4-parameter logistics curve: %-growth=bottom+(top−bottom)/(1+10^(logIC50-conc)*hill)) where hill is the Hill-coefficient, and bottom and top the asymptotic minimum and maximum cell growth that the compound allows in that assay.
(§9) NCI60 parameters. The LD50, the concentration at which 50% of cells die, is the concentration where luminescencet=end=½×luminescencet=0h. […] This is concentration associated with the signal: ((luminescenceuntreated,t=end−luminescencet=0)/2)+luminescencet=0.
(§10) Curve fitting. […] The hill was fixed on −6 when the software calculated a lower value. […] Incidentally, when technical failures were likely, concentration points were knocked out.
(§11) The special volcano plot of FIG. 9 relates compound sensitivity (as measured by ^10logIC50) to the presence of cancer hotspot mutations. […] The hotspot mutations were derived from statistical analyses of the recurrence patterns of mutations and copy number alterations in patients through separate studies. Axes and statistical analyses are identical to the volcano plot of FIG. 8. The cutoff p-level for significance is 0.32. […] Effect20 For determination of the effect of the compound on the activity of other anti-cancer agents in SynergyScreen™ experiments, a low, fixed concentration is used, corresponding to the concentration at which cell growth is inhibited by 20%.

U-87-MG = assay: as above; type: cell-based; conditions: glioblastoma, brain
Description: as §1, §2, §3, §4, §5, §6, §7, §8, §9, §10, §11

HT = assay: as above; type: cell-based; conditions: diffuse mixed lymphoma, B lymphoblast
Description: as §1, §2, §3, §4, §5, §6, §7, §8, §9, §10, §11

HT-1080 = assay: as above; type: cell-based; conditions: HT-1080, fibrosarcoma
Description: as §1, §2, §3, §4, §5, §6, §7, §8, §9, §10, §11

HL-60 = assay: as above; type: cell-based; conditions: HL-60, acute promyelocytic leukemia
Description: as §1, §2, §3, §4, §5, §6, §7, §8, §9, §10, §11

KG-1 = assay: as above; type: cell-based; conditions: KG-1, acute myelogenous leukemia (AML)
Description: as §1, §2, §3, §4, §5, §6, §7, §8, §9, §10, §11

DB = assay: as above; type: cell-based; conditions: large cell lymphoma, B lymphoblast
Description: as §1, §2, §3, §4, §5, §6, §7, §8, §9, §10, §11

RL = assay: as above; type: cell-based; conditions: non-Hodgkin's lymphoma, B lymphoblast
Description: as §1, §2, §3, §4, §5, §6, §7, §8, §9, §10, §11

THP-1 = assay: as above; type: cell-based; conditions: THP-1, acute monocytic leukemia
Description: as §1, §2, §3, §4, §5, §6, §7, §8, §9, §10, §11

MOLT-4 = assay: as above; type: cell-based; conditions: MOLT-4, acute lymphoblastic leukemia (ALL)
Description: as §1, §2, §3, §4, §5, §6, §7, §8, §9, §10, §11

[3] = In vivo test of mPEG-r-crisantaspase with cytarabine and daunorubicin (tolerability, body weight); conditions: mice; PegC 5 & 50 IU/kg as single agent and with cytarabine 50 mg/kg and daunorubicin 1 mg/kg
HL-60 cell line = assay: Combination (synergy) cell proliferation assay with pegcrisantaspase; type: cell-based
Description: Plate preparation. The stocks of the mixtures and single agents were diluted in DMSO or 0.9% sodium chloride to generate a 7-points dose-response series. After further 31.6 times dilution in 20 mM sterile Hepes buffer pH 7.4 (reference compounds) or medium (pegcrisantaspase), 5 μl of pegcrisantaspase solution, and 5 μl of reference compound was added to 40 μl pre-plated cells in duplicate in a 384-well assay plate. The final DMSO concentration during incubation was 0.4% in all wells.
Cell proliferation assay. A cell assay stock was thawed and diluted in appropriate medium and dispensed in a 384-well plate, depending on the cell line used, at a concentration of 800-3200 cells per well in […]: i.e., DB: 800 cells per well; RL: 1000 cells per well; MV-4-11: 1600 cells per well; KG-1, HL-60 and HT 3200 cells per well. For each used cell line the cell density was optimized previously. The margins of the plate were filled with phosphate-buffered saline. Plated cells were incubated in a humidified atmosphere of 5% CO2 at 37° C. After 24 hours, 5 μl of pegcrisantaspase solution, and 5 μl of reference compound was added, and plates were further incubated for another 72 hours. After 72 hours, plates were cooled in 30 minutes to room temperature and 25 μl of ATPlite 1Step™ (PerkinElmer) solution was added to each well, and subsequently shaken for 2 minutes. After 5 minutes of incubation in the dark at room temperature, the luminescence was recorded on an Envision multimode reader (PerkinElmer).
Controls: t=0 signal. On a parallel plate, 40 μl cells were dispensed in quadruplicate and incubated in a humidified atmosphere of 5% CO2 at 37° C. After 24 hours, plates were cooled to room temperature in 30 minutes. 5 μl DMSO-containing Hepes buffer, 5 μl 0.9% sodium chloride-containing medium and 25 μl ATPlite 1Step™ solution were added and subsequently mixed for 2 minutes. Luminescence was measured after 10 minute incubation (=luminescencet=0) in the dark.
as §6
Maximum signals. On each 384-well plate, the maximum luminescence was recorded after incubation for 72 hours without compound in the presence of 0.4% DMSO. All equivalent wells (usually 14) were averaged. This average is defined as: luminescenceuntreated,t=72h. Dose response curves. Accurate single agent IC50s are needed for combination analysis. For each single agent its dose-response signal was fitted by a 4-parameter logistics curve using XL-fit 5 (IDBS software):
luminescence=bottom+(top-bottom)/(1+10^(logIC50−log[cpd])−hill))
[cpd] is the compound concentration tested. hill is the Hill-coefficient. Bottom and top are the asymptotic minimum and maximum of the curve. Combination Index (CI) determination. The CI is one of the most widely used quantitative indications of synergy. The CI evaluates the concentrations needed to achieve a fixed-effect. A CI of below 1 indicates synergy.
CI is defined for a certain percentage cell viability (V), which is the signal related to a non-exposed control: V=100%×luminescencetreated,t=72h/luminescenceuntreated,t=72h. The concentrations of the two compounds cpd1 and cpd2 needed to reach a certain percentage cell viability V in combination are then compared to the concentrations needed as single agents:
IC50,cpd1 would signify the IC50 of cpd1 alone. The CI is labelled by %-effect, to follow conventions, so CI75 signifies the CI at 25% viability Curve shift analysis. This analysis provides a visual confirmation of synergy^1. The concentrations of the mixtures of compounds 1 and 2 (cpd1 and cpd2), and the single agents, were expressed in terms of IC50 equivalents (in ‘units’ of IC50):
The dose-response signal was fitted by a 4-parameter logistics curve using XL-fit 5 (IDBS software)

[4] = in vivo; cited from earlier work
[5] = pegcrisantaspase with ABT-747, average Combination Index of the mixtures at ED50, HL-60

Molecule	in vitro activity compared to the unmodified L-asparaginase [1]	children who had an allergic reaction [2]	Effect20 (concentration at which cell growth is inhibited by 20%) (MV-4-11) [IU/mL]	Effect20 (concentration at which cell growth is inhibited by 20%) (U-87-MG) [IU/mL]	Effect20 (concentration at which cell growth is inhibited by 20%) (HT) [IU/mL]	Effect20 (concentration at which cell growth is inhibited by 20%) (HT-1080) [IU/mL]	Effect20 (concentration at which cell growth is inhibited by 20%) (HL-60) [IU/mL]	Effect20 (concentration at which cell growth is inhibited by 20%) (KG-1) [IU/mL]	Effect20 (concentration at which cell growth is inhibited by 20%) (DB) [IU/mL]	Effect20 (concentration at which cell growth is inhibited by 20%) (RL) [IU/mL]	Effect20 (concentration at which cell growth is inhibited by 20%) (THP-1) [IU/mL]	Effect20 (concentration at which cell growth is inhibited by 20%) (MOLT-4) [IU/mL]	tolerability [3]	Curve shift (HL-60 cell line; pegcrisantaspase with ABT-747, HL-60, leftward shift indicates synergy)	Average CI value 1:1, 1:2 and 2:1 (HL-60 cell line; [5])	Average CI value 1:1, 1:5 and 5:1 (HL-60 cell line; [5])	Average CI value 1:1, 1:10 and 10:1 (HL-60 cell line; [5])	IC50 (IU/mL) (HL-60 cell line; single agent, HL-60, 72 hours)	maximal effect (HL-60 cell line; single agents, dose-response curves of FIG. 3, HL-60) [%]	patients antibody-positive [4]
Oncaspar: E. coli L-asparaginase modified at multiple lysine residues using 5 kDa mPEG-succinimidyl succinate (conjugate, UniProt P00805 23-348, looked up, 5 kDa mPEG-succinimidyl succinate on lysines, E. coli L-asparaginase modified at multiple lysine residues using 5 kDa mPEG-succinimidyl succinate) L-asparaginase 2: LPNITILATGGTIAGGGDSATKSNYTVGKVGVENLVNAVPQLKDIANVKGEQVVNIGSQDMNDNVWLTLAKKINTDCDKTDGFVITHGTDTMEETAYFLDLTVKCDKPVVMVGAMRPSTSMSADGPFNLYNAVVTAADKASANRGVLVVMNDTVLDGRDVTKTNTTDVATFKSVNYGPLGYIHNGKIDYQRTPARKHTSDTPFDVSKLNELPKVGIVYNYANASDLPAKALVDAGYDGIVSAGVGNGNLYKSVFDTLATAAKTGTAVVRSSRVPTGATTQDAEVDDAKYGFVASGTLNPQKARVLLQLALTQTKDPQQIQQIFNQY	approximately 50%	30-41%	0.26	0.4	0.28	0.00025	0.0003	0.0001	0.47	0.37	0.31	0.00019								
Pegcrisantaspase: mPEG-r-crisantaspase conjugate: Erwinia chrysanthemi L-asparaginase conjugated to polyethylene glycol, prepared as set forth in U.S. Pat. No. 9,920,311 (conjugate, UniProt P06608 22-348, looked up, mPEG conjugate) L-asparaginase: ADKLPNIVILATGGTIAGSAATGTQTTGYKAGALGVDTLINAVPEVKKLANVKGEQFSNMASENMTGDVVLKLSQRVNELLARDDVDGVVITHGTDTVEESAYFLHLTVKSDKPVVFVAAMRPATAISADGPMNLLEAVRVAGDKQSRGRGVMVVLNDRIGSARYITKTNASTLDTFKANEEGYLGVIIGNRIYYQNRIDKLHTTRSVFDVRGLTSLPKVDILYGYQDDPEYLYDAAIQHGVKGIVYAGMGAGSVSVRGIAGMRKAMEKGVVVIRSTRTGNGIVPPDEELPGLVSDSLNPAHARILLMLALTRTSDPKVIQEYFHTY			0.0088	0.057	0.033	0.013	0.00028	0.00018	0.059	0.037	0.012	0.00019	well tolerated	yes	0.26	0.29	0.33	0.070	88	
Erwinia L-asparaginase: L-asparaginase protein from Erwinia chrysanthemi, named crisantaspase, marketed as Erwinase (protein, UniProt P06608 22-348, looked up) L-asparaginase: ADKLPNIVILATGGTIAGSAATGTQTTGYKAGALGVDTLINAVPEVKKLANVKGEQFSNMASENMTGDVVLKLSQRVNELLARDDVDGVVITHGTDTVEESAYFLHLTVKSDKPVVFVAAMRPATAISADGPMNLLEAVRVAGDKQSRGRGVMVVLNDRIGSARYITKTNASTLDTFKANEEGYLGVIIGNRIYYQNRIDKLHTTRSVFDVRGLTSLPKVDILYGYQDDPEYLYDAAIQHGVKGIVYAGMGAGSVSVRGIAGMRKAMEKGVVVIRSTRTGNGIVPPDEELPGLVSDSLNPAHARILLMLALTRTSDPKVIQEYFHTY																				30-50%
